Source: paper PMC8863788, “A multiparametric fluorescence assay for screening aptamer–protein interactions based on microbeads”

Tests used:
Experiment in all cases: fluorescent microbead binding (VideoScan)
PfLDH = PfLDH (UniProt Q76NM3 1-316); conditions: protein: recombinant; chain copies: 4
Thrombin = Thrombin (UniProt P00734;P00734 328-363;364-622)
Interferon gamma (IFNγ) = Interferon gamma (IFNγ) (UniProt P01579 24-161); conditions: protein: commercial; chain copies: 2
Chain of Interferon gamma (IFNγ) (P01579 24-161): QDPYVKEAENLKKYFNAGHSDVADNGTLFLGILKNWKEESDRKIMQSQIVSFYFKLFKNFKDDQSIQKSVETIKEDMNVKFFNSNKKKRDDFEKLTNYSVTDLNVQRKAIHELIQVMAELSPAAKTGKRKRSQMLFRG

B1: PfLDH-apta (structured_DNA)
DNA: CTGGGCGGTAGAACCATAGTGACCCAGCCGTCTAC
binding signal (PfLDH): ~2 fold signal vs no divalent cations
binding signal (Thrombin): ~8 fold signal increase
binding signal (Interferon gamma (IFNγ)): ~6 fold signal increase
